Data on 41 sequences can be found in the nanobody polyreactivity screen of Harvey et al. (2022).

The nature of the series: yeast display, Sf9 membrane polyspecificity reagent, FACS + sequencing; frameworks hold sequencing errors. In outline: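 A nanobody's polyreactivity label depends on the gate it was sorted from. Yeast display cells were stained with 10% biotinylated, detergent-solubilized Sf9 membrane reagent for 1 hour at 4 °C, enriched on streptavidin microbeads and sorted by FACS. The low and high (top ~1%) gates were set on anti-HA fluorescence for expression and streptavidin fluorescence for reagent binding.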
With “QVQLQESGGGLVQAGGSLRLTCAASGTISDSGLMGWYRQAAGKERELVAGISSGGITNYADSVKGRFTISRDNAKNTVYLQMNSLIPEDTAVYWGQGTQVTVSS”, the “polyreactivity (PSR sort gate)” value is listed as “low polyreactivity”.
For the sequence “QVQLQESGGGLVQAGGSLRMSCAASGSIFYVYGMGWYRQAPGKERELVAGINAGTNTNYADSVRGRFTISRDNAKNTVHLQMKSLKPEDTAVYYCAADGNGYQADEYWGQGTQVTVSS”, the “polyreactivity (PSR sort gate)” value is “high polyreactivity”.
“QVQLQESGGGLVQAGGSLRMSCAASGSISHYIFMGWYRQAPGKEREFVAGIGYGGTTNYADSVKVRFTISRDNAKNTVYLQMNRLKPEDTAMYYCAAREATEFYLYYWGQGTQVTVSS”: the “polyreactivity (PSR sort gate)” value is listed as “low polyreactivity”.
The result for “QVQLQESGGGLVQAGGSLSLSCAESGTISFTRDMVWYRQAPGKEREFVASIDRGASTYYADSVKGRFTISRDNAKNTVYLQMNSLKPEDSAVYYKAVIAPFYSSFAYWGQGTQVTVSS” reads “high polyreactivity”; that for “QVQLQESGGGLVQAGGSQRLSCAASGSISILQSRGCYRQAPGKERELVAGINWGATTYYADSVKGRLTTSRDYAKNTVYLQMNSLKPEDTAVYYCAVPTYYTYPLLYWGQGTQVTVSS”, “low polyreactivity”; that for “QVQLQESGGGLVQAGGSQRLSCAASGYIIYFQYMGWYRQAPRKEREFVAAISDGANTNYADSVKGRFTISRDNAKNTVYLQMNSLKPEDTAVYYCAVYADENYYYIYWGQGTQVTVSS”, “low polyreactivity”.
Then “QVQLQESGGGLVQAGGSQRLSSAASGYNFYFQYMGWYRQAPGKEREFVAAISDGANTNNADSVKGRFTISRDNAKNTEYLQMNSLKPEDSAVYYCAVYADDNYYYIYWGQGTQVTVSS”, with “low polyreactivity”; and “QVQLQESGGGLVQAGGTITLGYDMGWYRQAPGKEREFVAGIDTGAITYYADSVKGRFTNSRDNAKNTVYLQMNCLKPEDTAVYYCAAIQTHTYAHSYWGQGNQVTVSS”, with “high polyreactivity”; and “QVQLQESGGGLVQAGGTITLGYDMGWYRQAPGKEREFVAGIDTGAITYYADSVKGRFTNSRDNAKNTVYLQMNSLKPEDTAVYYCAAILTHTYAHSYWGQGTQVTVSS”, with “high polyreactivity”.
For “QVQLQESGGGLVQAGGTLRLSCAASGSFSADEDMGWYRQAQGKEREFVAGISVGGNTNYADSVKGRFTISRENAKNTVYLQINSLKPEDTAVYYCAVLQDVYDALDYWAQGTQVTVSS”, the “polyreactivity (PSR sort gate)” value is given as “high polyreactivity”.
The result for “QVQLQESGGGLVQAGVSLRLSCAASGSIFADVQMGWYRQAPGKERELVASIIFRGTTTYYADSVKGRFTISRDNAKNTVYLQMSSLKPEDTAVYYCAVGRSEGGDFAYWGQGTHVTVSS” reads “low polyreactivity”; that for “QVQLQESGGGLVQASGSLRLSCAASGNIFPDYLMGWYRLAPGKEREFVANITGGSTTNYADSVKGRFTISRDNATNTVYLQMNSLKPEDTAVYYCEVNFGTVVLYLYWGQGTQVTVSS”, “high polyreactivity”; that for “QVQLQESGGGLVQEGGSLRLSCAASGNISPPADMGWYRQAPGKERELVASIGTGGTTNYADSVKGRCTISRDNAKNTVYLQMNSLKPDDTAVYYCAAVRYEYNPYDYWGQGTQVTVSS”, “low polyreactivity”.
With “QVQLQESGGGLVQVGGSLRLSCAASGTIFIYGFLGWNRQAPGKERELVASINLGGITNYADSVKGRFTISRDNAKNTVYLQMISLKPEDTAVYYCAAYVVTGQNYGYWGQGTQVTVSC”, the “polyreactivity (PSR sort gate)” value is reported as “low polyreactivity”.
The result for “QVQLQESGGGLVQVGGSLRLSCAASGTIFIYGFLGWNRQAQGKELELVASINLGGITNYADSVKGRFTISRDNAKNTLYLQMISLKTEDTAVYYCAAYVVTGQNYGYWGQGTQVTVSS” reads “low polyreactivity”; that for “QVQLQESGGGLVQVGGSLRLSCAASGTIIIYGFLGWNRQAPGKERELVASINLGGITNYADSVKGRFTISRDNAKNTVYLQMISLKPEDTAVYYCAAYVVTGQNYGYWGQGTQVTVSS”, “low polyreactivity”.
Then “QVQLQESGGGPVLAGGSLRLSCAASGTIFVPLDMGWYRQAPGKEREFVATIGSGSSTYYADSVKGSFTISRDNVKNTVYLQMNSLKPEDTAVYYCAVSAAEQSRHYYWDQGTQVTVSS”, with “low polyreactivity”; and “QVQLQESGGLVQAGGSLRLSCAASGSISGRNVMGWYRQAPGKEREFVASITDGSSTNYADSVKGRVTISRDNAKNTVYLQMNSLKPKDTAVYYCAAYAQRAKSFGYWGRGTQVTVSS”, with “low polyreactivity”.
On to “QVQLQESGGRLEQAGGSLRPSCAASGSISDGVPMRWNRQAPGEERELVATTVLGATTNYADSVKGRFTISRGNAKHTVYLQMNSLKPEETAVYYCAARLRYDKGFSYWGQGTQVTVSS”, for which the “polyreactivity (PSR sort gate)” value is on record as “low polyreactivity”.
On to “QVQLQESGGVLEQARGSLRLSCAASGFIFARNYMGWYSQAPGKERELVAGIGVGAITNYADSVKGRFTISRDNAKNTVYLQMNSLETEESAVYYCAVGDTVLGYHYYWGQGTQVTVSN”, for which the “polyreactivity (PSR sort gate)” value is “low polyreactivity”.
The result for “QVQLQESGGVLVQAGGSLRQSYAASGYIFPSLAMGWYRQAPGKEREFVAAIGRGSTNNYADSVKGRFTISRDNAKNTAYQQMNSLKPEDTAVYYCAAAASPLTRHLYWGQGTQVTVSS” reads “low polyreactivity”; that for “QVQLQESGSGLVQAGGSLRLSCAAIGAIFPAYLMGWYRQAPGKERELVAGISYGSITYCADSVKGRFNISRDNAKNTVYLQMNSLKPEYTAVYYCAVWRPGGDEYYYWGQGTQVTVSS”, “low polyreactivity”; that for “QVQLQESGVGLVQAYGSLRLSCAAIGSIFGYYYMGSYRQAPGKDRELVATINICGITNYADSVKGRFTISRDNAKYTVYLQMKSLKRDDTAVFYCAADEYAQRDLGYWGQGTQVTVSS”, “low polyreactivity”.
Turning to “QVQLQESGVRLVQAGGSLRLSCAASGPISRRSTMGWYRQAPGKERELVTAITRGTNTNYADSVKGRFTISRDNAKNTEYLQMNSLKPEDTAVYYCAAYGVLKPSRGDAVFHRYWGQGTQVTVSS”, the “polyreactivity (PSR sort gate)” value is listed as “low polyreactivity”.
Take “QVQLQESRGGLVQAGGSLRLSCAASGSITHYIFMGWYRQAPGKEREFVAGIGYGGTTNYADSVKGRFTISRDNAKNTVFLQMNSLKPEDTAMYYCAAREATEFYLYYWGQGTQVTVSS”: the “polyreactivity (PSR sort gate)” value is on record as “low polyreactivity”.
Regarding “QVQLQESSGGLVQAGGSLRMSCAASGTIFHFHIMGWYRQAPGKEREFVAAISYGTSTYYADSVKGRFTISRDNAKNTVYLQMNSQKPEDTGVYYCAVYDYLEVYCWYWGQGTQVTVSS”, the “polyreactivity (PSR sort gate)” value is “low polyreactivity”.
Then “QVQLQESSGGLVQAGGTLRMSCAASGTIFHFHIMGWYRQAPGKEREFVAAISYGTSTYYADSVKCRFTISRDNAKNTVFLQMNSQNPEDNEVYYCAVYDYLEVYCWYWGQGTQVTVSS”, with “low polyreactivity”; and “QVQLQESVGGLVQACGSQRLICAASGYIFSHQYMGCYRQAPGKERELVASMSPGATTNYADRVKGRFTISRDNAKNTVYLQMNSLKTEDTAVYYYAVYQILDRRLSYWGQGTQVTVSC”, with “high polyreactivity”; and “QVQLQESVGGLVQAGGSLRLSCAASGNIFPTHRMGWYRQAPGKELEFVATISDGGSTNYADSVKGRFTISRDHAKNTVYLQMNSLKPEDTAVYYCAVLSLGRLRHYYWGQGTQVTVSS”, with “low polyreactivity”.
The result for “QVQLQGSGGGLAQAGDSLRLSCAASGTIFSEYNNGLVSPGAGQRTRTCCRYWCWGNTYYADSAKGRFTTSRDNAKNTVYLQKHSLKPADTAVYYCAFNRPFPSRHIYRGQGTQVTVSS” reads “high polyreactivity”; that for “QVQLQGSGGGLAQAGDSLRLSCAASGTIFSEYNNGLVSPGAGQRTRTCCRYWCWGNTYYADSAKRRFTTSRDNAKNTLYLQKNSLKPEDTAVYYCAFNRPYPSRHIYRGQGTQVTVSS”, “high polyreactivity”; that for “QVQLQGSGGGLVQAGGSLRLSCAASGNIFDADIMAWYRQAPGKESELVASITDGGSTNYADSVKGRFTISRDNAKNTVYLQMNSLKQEDTAVYYCADIAYPDIPTYFDYDSDCFYWSQGTQVTVSS”, “high polyreactivity”.
For “QVQLVASGGGLLQAGGSLRLSCAASGRILRVYAMGWYRPAPGKESELVAAITWRGGSTYYADSVKGRFTISRDNAKNTVYLQMNSLKPEDTAVYYCAAEAYSYGYSALLYDYWGQGTQVTVSS”, the “polyreactivity (PSR sort gate)” value was “high polyreactivity”.
Then “QVQLVASGGGLVHAGASLRLSCAASGRIFTGNVMGWYRQAHWKERELVAAISVSGGRTYYADSVKGRFTISRDYAKNTVYLQMNSLKPVDSAVYYCNARYSRVWYGGDYWGQGTQVTVSS”, with “high polyreactivity”.
Then “QVQLVASGGGLVQAGGSLRISCAASGSIIYYYAMGWYRHAPRKERELVAAISTSSGRTYYADSVKGRFTISRDNAKNTVYLQMNSLKPEDTAVYYCANEIPFTRYTWPRYNYWGQGTQVTVSS”, with “high polyreactivity”.
In the case of “QVQLVASGGGLVQAGGSLRLRCAASGFIFRYNTMGWYRQAPGKEREMVAVINRGGSTYYADSVKGRFTISRDNAKNTVYLQLNSLKAEDTGVYDCNVAKFGRYYYWGQGTQVTVSS”, the “polyreactivity (PSR sort gate)” value was “high polyreactivity”.
The result for “QVQLVASGGGLVQAGGSLRLSCAASGFIVSVYAMGWYRQAPGKERELVAVISTSGGRTYYADSVKGRFTISRDNAQNTVYLQMNSLKPEDTAVYYCAADGFQYTLGNYYWGQGTHVTVSS” reads “high polyreactivity”; that for “QVQLVASGGGLVQAGGSLRLSCAASGLIIRYYAMGWYRQAPGKEREFVAAITWNGGSTYADSVKGRFTISRDNAKNTVNLQMNSLIPEDTAVYYCAADLSYWDDFDYSGQGTQVTVSS”, “low polyreactivity”; that for “QVQLVASGGGLVQAGGSLRLSCAASGSTFARYAMGWYTPAPGKERELVAAITEGGDRTSYADSVKGRFTISRDNAKNHVYLQMHSLKPEDTAVYYCAAERRYESWYFGYRTMDYWGQGTQVTVSS”, “low polyreactivity”.
Then “QVQLVASGGGLVQAGGSLRLSCAASGSTFDIYAMGWYRQAPGKERELVAAISVSDVYTYYADSVKGRFTISRDNAKNTVYLQMNSLKPEDTAVYYCAAETPTHDEWGQGTQVTVSS”, with “high polyreactivity”; and “QVQLVASGGGLVQAGGSLRLSCAASGSTFTQNAMGWDRPAPGQEREVVAAISWSGARTYYADSVKGRFTISRHNAKNTVYLQMNSRKPEDPAVYDCNNYARKRGTTYDYWGHGTQVTVSS”, with “high polyreactivity”.
